Laboratory results reported in the supplement of paper PMC9170038.

Test system: MS2 coat protein
Experiment: apparent KD of MS2 coat protein; higher = weaker reporter binding
Conditions: Eterna round: R107
Procedure: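 RNA-MaP round R107: designed RNA switches with theophylline, tryptophan, arginine or FMN aptamers are transcribed on-chip within common flanks. They are titrated with SNAP-549-labelled MS2 coat protein in RNA-MaP buffer (100 mM Tris pH 7.5, 80 mM KCl, 4 mM MgCl2), without ligand or with the indicated ligand. Median apparent KD per design.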

[1] = input ligand: theophylline 20 uM
[2] = input ligand: theophylline 2 mM
[3] = input ligand: tryptophan 2.4 mM

Sequence | apparent KD of MS2 coat protein (input ligand: arginine 13.2 mM) [µM] | apparent KD of MS2 coat protein (input ligand: none) [µM] | apparent KD of MS2 coat protein [1] [µM] | apparent KD of MS2 coat protein [2] [µM] | apparent KD of MS2 coat protein [3] [µM]
ACAUGAGGAUCACCCAUGUAAUGGCACGAUACCAGCUGAUCCCGUGGCCCUUGGCAGCGUCCGGUGUGGUCCGGCGGGUUGGACG [LLLMULLIN] | 0.0145 | 0.0145 | 0.0226 | 0.0345 | 0.0174
ACAUGAGGAUCACCCAUGUACAUCACCCGACGAGGACCGGUACGGCCGCCACUCGGGUAUAUAUAUACAUCGGGUGAUUUUACGU [#22 Tryptophan A Same State] | 0.0274 |  | 0.0574 | 0.0641 | 
ACAUGAGGAUCACCCAUGUACAUCACCCGACGAGGACCGGUACGGCCGCCACUCGGGUAUAUAUAUACAUCGGGUGGUUUUGCAU [a15jan] | 0.0407 |  | 0.0884 | 0.04 | 
ACAUGAGGAUCACCCAUGUACAUGAGGGAAGGAGCGGUACAUGUACCAGGUAGGUCGCCCAACAGCAUCAGCCAUGUACAUCAGC [ggvmullin] | 0.0314 | 0.0761 | 0.102 | 0.0904 | 0.069
ACAUGAGGAUCACCCAUGUAGCGUAGGGAAGGAGCGGAAUAGAGUCCAGGUAGGUCGCCCAUAUGAUGAUCUCACUUAUUAUCGA [#13 Same State - Arginine A] | 0.0391 | 0.0211 | 0.0367 | 0.0408 | 0.0229
ACAUGAGGAUCACCCAUGUAUGACUAUCCUCGAGGACCGGUACGGCCGCCACUCGAACGAGUGGCUCGCGAGUGCGCACUUGCGA [5' end] | 0.0167 | 0.0132 | 0.0167 | 0.0127 | 0.0119
ACAUGAGGAUCACCCAUGUAUGAUGUUCCUCGAGGACCGGUACGGCCGCCACUCGAACGAGUGGCGCGCGAGCGCGCGCUCGCGC [aVa] | 0.014 | 0.0156 | 0.0272 | 0.0173 | 0.0152
ACAUGAGGAUCACCCAUGUAUGAUGUUCCUCGAGGACCGGUACGGCCGCCACUCGAACGAGUGGCGCGCGAGUGCGCACUCGCGC [aWa] | 0.0211 | 0.0157 | 0.0387 | 0.0168 | 0.0141
ACAUGAGGAUCACCCAUGUAUGGCGCGGAAGGAGCGUGAUUAAGCACAGGUAGGUCGCUGCGUUGAUCGAGCGUUAGCUCGAUAA [SSArg A #9] | 0.0158 | 0.019 | 0.0251 | 0.0224 | 0.0223
ACAUGAGGAUCACCCAUGUAUUACCGGGAAGGAGCGCGUGAAAACGCAGGUAGGUCGCUCGGCGUCGUGCUGUAAAGCACGACGA [#1 Same State - Arginine A Attempt #25 (HarryS)] | 0.0133 | 0.0115 | 0.0162 | 0.0156 | 0.0134
ACAUGAGGAUCACCCAUGUAUUCAUCAGAAGGAGCGUGGAAUAACACAGGUAGGUCGCUGAUUAUUUGUUAAAUAAAAUCGUGUA [JR_Nu_SSArginiA_Sub022] | 0.0125 | 0.0173 | 0.0206 | 0.0171 | 0.0183
ACAUGAGGAUCACCCAUGUCAGGGCACGAUACCAGCUGAUCCGAUGGCCCUUGGCAGCGUGACGUGUGGUCAUGAGGAUCACCCG [kvfmullin] | 0.139 |  | 0.209 |  | 0.182
ACAUGAGGAUCACCCAUGUCAUGAGGUUCACGAGGACCGGUACGGCCGCCACUCGACAUGAGGGUCACCCGUGAAGGGAACACCC [xdmullin] | 0.0181 | 0.0227 | 0.0298 | 0.0429 | 0.0179
ACAUGAGGAUCACCCAUGUGAAGCAGGGUACGAGGACCGGUACGGCCGCCACUCGAGCAUUAUAACGAGUGAAUGGCAACGAUGU [whbob_Ex_trypto A_2s16] | 0.0117 | 0.0124 | 0.019 | 0.0174 | 0.0128
ACAUGAGGAUCACCCAUGUGGAGCAGGGUACGAGGACCGGUACGGCCGCCACUCGAGCGUUAUGACGAGUGAAUGGCAACGAUGU [whbob_X-Trypto_A_V1.0] | 0.00993 | 0.0105 | 0.0159 | 0.0125 | 0.0121
ACAUGAGGAUCACCCAUGUGGCGUCUUGAUACCAGACCCGAAGUAGUCCCUUGGCAGCAACUACGUGAGGGUCGCCCAUGUGUAG [k'kmullin] | 0.0235 | 0.0304 | 0.0408 | 0.0409 | 0.0255

Sequence | apparent KD of MS2 coat protein (input ligand: arginine 13.2 mM) [µM] | apparent KD of MS2 coat protein (input ligand: none) [µM] | apparent KD of MS2 coat protein [1] [µM] | apparent KD of MS2 coat protein [2] [µM] | apparent KD of MS2 coat protein [3] [µM]
ACAUGAGGAUCACCCAUGUGUGUAAAUCCUCGAGGACCGGUACGGCCGCCACUCGAACGAGUGUAAGAUGAAUGUUACAUUCAUC [SS Trp A s2] | 0.0708 |  | 0.134 | 0.117 | 
ACAUGAGGAUCACCCAUGUGUGUAAGUCCUCGAGGACCGGUACGGCCGCCACUCGAACGAGUGAAGCCUGAUACUAAGUAUCAGG [SS Trp A s5] | 0.0996 | 0.0154 | 0.0207 | 0.0144 | 0.0187
ACAUGAGGAUCACCCAUGUGUGUAAGUCCUCGAGGACCGGUACGGCCGCCACUCGAUUGAGUGUAAGUUGAAUGUAACAUUCAAC [whbob_SS_trypto A_2s10] | 0.0164 |  | 0.0228 | 0.0181 | 
ACAUGAGGAUCACCCAUGUUAUUUACCGAAGGAGCGGGUAUAUACCCAGGUAGGUCGCGGACAACAUGAGGAUCACCCACAUGAG [AstrosSSArgA#21] | 0.0455 | 0.0285 | 0.0534 | 0.0714 | 0.0278
ACAUGAGGAUCCGAUACCAGCCACAUGAGGAUCACCCAUGUAGUACAUGAGGAUCACCCAGGCCCUUGGCAGCGGACAUGAGGAU [Exclusion - Theophylline B] | 0.0959 |  | 0.331 |  | 0.149
ACAUGAGGGCGAAGGAGCGCGAACAUGAGGAUCACCCAUGUCUAUAUCCGUCCGCAUGUAUCGCAGGUAGGUCGCGCUGUUACUU [#13 Exclusion - Arginine B] | 0.00899 | 0.0086 | 0.0114 | 0.0085 | 0.00852
ACAUGAGGGCGAAGGAGCGCGUACAUGAGGAUCACCCAUGUCUAUAUCCGUCCGCGUGUAACGCAGGUAGGUCGCGCUGUUAAUU [#14 Exclusion - Arginine B] | 0.0154 | 0.016 | 0.0216 | 0.02 | 0.0162
ACAUUGCGCUCGGCCGCCACUGGCUAUAGAUUUAUAGCAUUAAUGAACAUGAGGAUCACCCAUGUCAGGACCGGGAGCGAACCAU [SSTryp B #8] | 0.0121 |  | 0.0172 | 0.0132 | 
ACAUUUAACUGAAGGAGCGUGAUAAACAUGAGGAUCACCCAUGUACCACAGAUUCUUAGAUCACAGGUAGGUCGCAGACUAAUGA [JR_ExcArginiB_Sub013] | 0.0112 | 0.0117 | 0.0137 | 0.0126 | 0.0124
ACAUUUAACUGAAGGAGCGUGAUAUACAUGAGGAUCACCCAUGUGUCUUACAUGAAUAAUUCACAGGUAGGUCGCAGACUAAUGA [JR_ExcArginiB_Sub009] | 0.0305 | 0.0267 | 0.0337 | 0.0394 | 0.0321
ACAUUUAACUGAAGGAGCGUGAUUAACAUGAGGAUCACCCAUGUAACUUAGAUGCUUAUAUCACAGGUAGGUCGCAGACUAAUGA [JR_ExcArginiB_Sub011] | 0.0139 | 0.0136 | 0.0183 | 0.0149 | 0.0155
ACCUACACGGAGACGUGUAGGAGUAAUGAUACCAGCAUGGAGACAUGCCCUUGGCAGCGUUACAUGAGGAUCACCCAUGUAGGUU [ETHA #4] | 0.0433 | 0.0436 | 0.059 | 0.0788 | 0.0431
ACCUACACGGAGACGUGUAGGAGUAAUGAUACCAGCAUGGAGACAUGCCCUUGGCAGCGUUACAUGAGGAUCACCCAUGUAGUGC [ETHA #5] | 0.0104 | 0.0107 | 0.0142 | 0.0128 | 0.0129
ACCUGCGUUUGAUUCUAUCUGACGCAGGUUCGAGGACCGGUACGGCCGCCACUCGGACAUGAGGAUCACCCAUGUUUGACAUGGG [#03 Exclusion Tryptophan A] | 0.0278 | 0.121 | 0.608 | 0.186 | 0.0927
ACCUGUACGAAAAGUGCAGGACACGAAUAACGAGGACCGGUACGGCCGCCACUCGGAAAAUAACCUGAGGAUCACCCUGGUCGUG [TrypAS 7 #AlternativeMS2 #Zipper #StaticStem] | 0.0295 | 0.0316 | 0.0375 | 0.0401 | 0.0339
